Among the data in the supplement of paper PMC12042874 are amyloid nucleation score values, retold here.

± gives the uncertainty stated by the source.

This series can be described thus: amyloid nucleation score (Sup35N fusion, yeast selection) (log enrichment); library NNK1; higher = more nucleation; inactive = no reads after selection. An outline of the steps: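 Sup35N fusions to peptides of 20 random codons were expressed in psi-negative yeast, induced 24 hours with 100 μM copper sulfate, and grown 7 days at 30°C on medium lacking adenine and uracil. Input and output plasmid inserts were sequenced by Illumina. The nucleation score is the DiMSum log enrichment of output over input reads, centred on the mode score of non-aggregating sequences. Sequences with under 100 input reads were excluded.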
Substance TFIITSRFLYSDVAT had an amyloid nucleation score of -1.33 ± 0.45.

On to TFIMSQSWFMQWPRTMAAMT, for which the amyloid nucleation score is -0.346 ± 0.45.

TFLGGAPVGKIFTLIWLGRG showed an amyloid nucleation score of 0.52 ± 0.93.

Consider TFLITRMCYSTVQKKEVVFW, for which the amyloid nucleation score was -0.189 ± 1.2.

TFLSL returned an amyloid nucleation score of 0.068 ± 0.24.

For the substance TFRCKSCDLLYHRLENWSDW, the amyloid nucleation score was 2.66 ± 0.12.

With TFSDSLKNLQVMVHYSWVVG, the amyloid nucleation score is 0.224 ± 1.4.

Consider TFSEFAVIDIRYIWGTLFVS, for which the amyloid nucleation score turned out to be 0.762 ± 0.38.

The substance TFTFNACELCVPGLMCKEWN gave an amyloid nucleation score of 3.94 ± 0.096.

Regarding TFVCAFRGY, the amyloid nucleation score was found to be 2.19 ± 0.098.

Turning to TFYLEYLVLFGDCDADSFSW, the amyloid nucleation score is -0.361 ± 0.63.

TGATFMMRGVNLCEGSKSGN came in with an amyloid nucleation score of -0.198 ± 0.5.

Turning to TGDIISRSLSASIEQNFSSN, the amyloid nucleation score worked out at 0.443 ± 0.2.

As to TGFTSLGGYLKVFNIICWIH, the amyloid nucleation score was determined as 3.39 ± 0.097.

For the substance TGFVWWLFGCGWTLVDRMWF, the amyloid nucleation score is -0.79 ± 0.69.

The substance TGICLWLPAVVDAEES showed an amyloid nucleation score of -0.34 ± 0.35.

Regarding TGKGSSEHLRSNMNHRLYCA, the amyloid nucleation score came to 0.85 ± 0.43.

Substance TGLDNHNICNRDTR displayed an amyloid nucleation score of -0.034 ± 0.62.

TGLWPMEYSCQCDVVYPVSY showed an amyloid nucleation score of -0.051 ± 0.76.

For the substance TGRSTSTG, the amyloid nucleation score result is “inactive”.

Take TGWQCYSRANVVD: the amyloid nucleation score is -0.98 ± 0.51.

As for THFRMGKSFVICLGLASYPL, the amyloid nucleation score worked out at 0.374 ± 0.9.

Substance THGGCCQGFQPTQLQSLTHQ yielded an amyloid nucleation score of 0.367 ± 0.6.

Substance THHSTSVSGVDQW displayed an amyloid nucleation score of 0.289 ± 0.52.

Substance THNFEGLSVWDLKDLKCCS gave an amyloid nucleation score of 5.16 ± 0.087.

THSIFFVQLRFPFMLTTS had an amyloid nucleation score of -0.269 ± 0.78.

For TIAKST, the amyloid nucleation score was -0.885 ± 0.86.

TIDERDSAHKSSVFKGLKEI gave an amyloid nucleation score of -0.447 ± 0.33.

As to TIIFYVFQCSMLRFIQMV, the amyloid nucleation score result was “inactive”.

Turning to TIILSRLVEGVMQWAFMRAF, the amyloid nucleation score result was “inactive”.

As to TINDKMITRFSLLCPAVSMI, the amyloid nucleation score turned out to be 1.21 ± 0.84.

In the case of TISCSSYDMWWCFTEAKSTM, the amyloid nucleation score entry was “inactive”.

Regarding TKCGMGYISGISSPASGQYG, the amyloid nucleation score was 0.767 ± 1.

Turning to TKFKIAYTCYFNMFHRRLCI, the amyloid nucleation score is -0.374 ± 0.38.

As for TKLSPFNIGLRCRYHNLALN, the amyloid nucleation score is -1.52 ± 0.45.

For TKNSRTRLASSSLIWNW, the amyloid nucleation score is -1.45 ± 0.76.

The substance TKSMEPSGR displayed an amyloid nucleation score of 0.046 ± 0.52.

In turn, TKTLL yielded an amyloid nucleation score of 0.346 ± 0.34.

Turning to TKVKCSLLSFWEKKFLLLRL, the amyloid nucleation score is 1.82 ± 0.34.

As to TLAIESGRFWINRLWYVEGE, the amyloid nucleation score was -1.55 ± 1.3.

Regarding TLCERGPPMMYCKC, the amyloid nucleation score was -0.526 ± 0.45.

Turning to TLFLLVSNVIAEFLFWIVCP, the amyloid nucleation score worked out at 0.212 ± 0.3.

For TLGFKIVDGIRGNMLVGPGI, the amyloid nucleation score was -0.081 ± 0.73.

TLILVTLMASIRNDTRTSWS came in with an amyloid nucleation score of 0.979 ± 0.54.

In turn, TLIRGIIISRWRRVRNIDE gave an amyloid nucleation score of -0.216 ± 0.3.

In turn, TLLYICSRNTKFNGLMWLGL returned an amyloid nucleation score of 0.935 ± 0.21.

TLMDQSLYIWGSN came in with an amyloid nucleation score of -0.274 ± 0.63.

For TLNDYYCFMLCGAVNG, the amyloid nucleation score stood at 0.071 ± 0.63.

TLNLWSAWLLFPYDLAGIFY returned an amyloid nucleation score of -0.199 ± 0.33.

For the substance TLQLCLSSCWYKGRRVGLEC, the amyloid nucleation score was found to be 0.483 ± 0.3.

As for TLQLICYY, the amyloid nucleation score was 3.29 ± 0.14.

As for TLRLKWSWEADCDI, the amyloid nucleation score is 2.49 ± 0.12.

On to TLRWGNYKLLQIVYITVWRD, for which the amyloid nucleation score turned out to be 0.541 ± 0.28.

The substance TLSFIRAYSVPHQVLRMESL came in with an amyloid nucleation score of 0.87 ± 0.64.

For the substance TLSLNGLNP, the amyloid nucleation score result was “inactive”.

The substance TLSLNYRFNLKERFLVSGLI registered an amyloid nucleation score of -0.733 ± 0.38.

For TLTPTILILFNFIT, the amyloid nucleation score is 4.68 ± 0.052.

For TLTVSGAADIITFGSTIVVG, the amyloid nucleation score came out at 0.193 ± 1.5.

The substance TLVKLVVTIGLDIKDCGFVI came in with an amyloid nucleation score of 0.018 ± 0.18.

Take TLVYY: the amyloid nucleation score was determined as 0.296 ± 0.47.

In turn, TLWTWTSYRVVLYSSSVKLG displayed an amyloid nucleation score of -0.451 ± 0.32.

As to TLYLPGLKPTRHECMDLHQG, the amyloid nucleation score entry was “inactive”.

Substance TMRLNQCPLNSFPTLFLYER displayed an amyloid nucleation score of -0.602 ± 0.31.

In turn, TMVFCRI came in with an amyloid nucleation score of 0.23 ± 0.79.

For TMYTVVPNHWNNISFRALSR, the amyloid nucleation score was -0.909 ± 0.74.

TNCGITFVFTPIPRATTWSN gave an amyloid nucleation score of 5.37 ± 0.083.

TNELCMYCLGHLGY displayed an amyloid nucleation score of 0.694 ± 0.84.

As for TNFANHRLGDPIMYSFHKGV, the amyloid nucleation score is -0.74 ± 0.37.

Regarding TNGWTQHKYKYRSFSGHFII, the amyloid nucleation score entry was “inactive”.

Take TNHDMAINLVQQLDC: the amyloid nucleation score was 1.67 ± 0.61.

As for TNIFMSFKFLISSLRCFPER, the amyloid nucleation score turned out to be 4.68 ± 0.12.

TNILVAYRVISNGSTTPPRR returned an amyloid nucleation score of 3.56 ± 0.15.

TNRKIQSLPTVCVCIRGSSG: the amyloid nucleation score turned out to be 2.95 ± 0.11.

For the substance TNSKSSSVGSKATQHN, the amyloid nucleation score turned out to be 0.077 ± 0.35.

Substance TNTLLTPGCGINAIGVALYV gave an amyloid nucleation score of -0.628 ± 0.3.

For TNTSHVLTLESCSCRERVSR, the amyloid nucleation score was determined as 0.969 ± 0.55.

The substance TPDHLWLWLFYLNCNTENYG showed an amyloid nucleation score of 7.757 ± 0.046.

TPSLAEADCL returned an amyloid nucleation score of -0.909 ± 2.7.

Substance TQCCGS came in with an amyloid nucleation score of -0.448 ± 1.7.

Turning to TQCSFAANQF, the amyloid nucleation score was 0.768 ± 0.39.

TQRVIGERRMNADCRACRLR: the amyloid nucleation score is -0.061 ± 1.6.

In the case of TRCPV, the amyloid nucleation score is 0.253 ± 0.66.

TRHWVIRQVSSTRDKYTKHA showed an amyloid nucleation score of 0.217 ± 0.66.

As to TRLLRVGRSNFSLNEHSDRI, the amyloid nucleation score is -0.376 ± 0.9.

On to TRLRTYKCLQMGDYHVSSFK, for which the amyloid nucleation score turned out to be 0.672 ± 0.79.

Substance TRNSDNVWKFEGVFHNLETW had an amyloid nucleation score of 0.43 ± 0.48.

TRNVQHRIRSKSTISDKQIF: the amyloid nucleation score result is “inactive”.

TRSGYAHARSSAAQSFTL: the amyloid nucleation score is 0.622 ± 0.33.

As to TRTKSGFSLYVRR, the amyloid nucleation score was 1.1 ± 0.71.

In the case of TRVSFYRSKFAFMFYYHVMV, the amyloid nucleation score amounted to 0.099 ± 0.79.

On to TRWLILWNLAGPTGCYFRIL, for which the amyloid nucleation score stood at 0.063 ± 0.63.

The substance TSAGKYHSSIILLYLWDYVT had an amyloid nucleation score of 0.845 ± 0.41.

For TSALWEVLW, the amyloid nucleation score was 0.191 ± 0.58.

As to TSASYRADVWDDGNVLYRLW, the amyloid nucleation score result is “inactive”.

TSDNGKNAQGWGM came in with an amyloid nucleation score of 0.145 ± 1.

TSELNSYSTCFHSDGLSMNR: the amyloid nucleation score entry was “inactive”.

In the case of TSGIYRRSDFLERHIS, the amyloid nucleation score came to 0.993 ± 0.71.

Consider TSLCCSYWFSSVIGFSGYCG, for which the amyloid nucleation score was 1.89 ± 0.28.

TSLYQAYSIYSFRYYIAYMC: the amyloid nucleation score amounted to 0.232 ± 0.68.

On to TSPPSKIAVRCGWDSMSLR, for which the amyloid nucleation score amounted to 0.309 ± 0.6.

For TSRRAEYRWSYQEKSGSSRS, the amyloid nucleation score worked out at 1.26 ± 0.45.

Turning to TSSRCRYMFFLRHIFCKILK, the amyloid nucleation score entry was “inactive”.

In turn, TSSSRSIDR returned an amyloid nucleation score of 0.16 ± 0.35.

In turn, TSVHDRQELRDRLV registered an amyloid nucleation score of 0.69 ± 0.32.

Take TTKAVRCYRNIMCSTILGRS: the amyloid nucleation score was -0.015 ± 0.31.

Turning to TTNMRLFLLYNTTLVMSFNV, the amyloid nucleation score came out at 1.88 ± 0.16.

TTRMRRRY registered an amyloid nucleation score of 1.89 ± 0.56.

Regarding TTRSSGIFSDEGKQACSDRG, the amyloid nucleation score is 0.091 ± 0.74.

Regarding TTSYHTNGRAVRIVYPFANS, the amyloid nucleation score was -0.096 ± 0.6.

For TTVGNVFSGVHV, the amyloid nucleation score amounted to 0.027 ± 1.7.

In turn, TTVRGASANHVLTCYCPHYL returned an amyloid nucleation score of 0.601 ± 0.82.

TTYHCGP: the amyloid nucleation score was 0.039 ± 1.5.

Take TVAGVR: the amyloid nucleation score was found to be 0.174 ± 0.4.

In turn, TVDVPLAASSNKYKFMFYCE showed an amyloid nucleation score of 3.92 ± 0.098.

Turning to TVFMVKDRVILRFGRGLKAW, the amyloid nucleation score was -1.09 ± 1.1.

TVKDNHVLEEFVTFYVVYKS gave an amyloid nucleation score of -0.013 ± 0.27.

For the substance TVLFV, the amyloid nucleation score stood at 0.298 ± 0.38.

As to TVLIILRALLNSSPKTFD, the amyloid nucleation score amounted to 0.387 ± 0.22.

Regarding TVLPF, the amyloid nucleation score worked out at 1.6 ± 0.55.

The substance TVLWWSSGDSGSCWYYCKIE registered an amyloid nucleation score of -0.177 ± 0.31.

Consider TVMSNHGHLMKYYFVRLEGF, for which the amyloid nucleation score was 0.759 ± 0.62.

Substance TVNRG came in with an amyloid nucleation score of 0.409 ± 1.4.

On to TVNTYSANDYVRTMVCELSV, for which the amyloid nucleation score entry was “inactive”.

TVNVFFLQACSRSC came in with an amyloid nucleation score of 7.73 ± 0.06.

Regarding TVRGGLY, the amyloid nucleation score was -1.04 ± 0.62.

In the case of TVTDYKTYASLLFGTKTYAI, the amyloid nucleation score was found to be 2.17 ± 0.47.

On to TVTGFMF, for which the amyloid nucleation score was -0.645 ± 1.7.

For TWCCEVNAAVEHG, the amyloid nucleation score was -1.17 ± 1.1.

As for TWCTV, the amyloid nucleation score was 0.082 ± 0.28.

In turn, TWIEDCSYYEMYTGPERTLT showed an amyloid nucleation score of -0.282 ± 0.46.

Substance TWNTL gave an amyloid nucleation score of -0.343 ± 0.4.

TWNVMYRIRF registered an amyloid nucleation score of 2.04 ± 0.23.

TWRFVFCFFWTRGPRLLICA showed an amyloid nucleation score of -0.768 ± 0.37.

On to TWRLDIFGGRRGRVASRKKW, for which the amyloid nucleation score was -0.076 ± 0.96.

TWTLL gave an amyloid nucleation score of 1.18 ± 0.63.

Turning to TWWCV, the amyloid nucleation score was -0.285 ± 0.27.

For the substance TYEPKGRLPCWCSAQSMGCL, the amyloid nucleation score is -0.096 ± 0.34.

In turn, TYHFCLFMSYSGSNRAALCN showed an amyloid nucleation score of -0.212 ± 1.

TYMTSTMQLRHTFFRSQANL had an amyloid nucleation score of 2.7 ± 0.098.

In the case of TYNCILNSCSSSYTKVLV, the amyloid nucleation score came to 0.703 ± 0.24.
